How the values were obtained:
7tmHR = target: T1, 7tmHR (Homo sapiens, UniProt O60241); assay: Changes in intracellular Ca2+ concentration in 7tmHR stably-expressing strain; type: cell-based
T1 construct: a vector expressing each full-length cDNA clone was constructed; expressed in transfected cells; host or cells: CHO-K1, 7tmHR/pcDNA3.1
Description: (§1) The 7tmHR stably-expressing strain and the hk01941 stably-expressing strain were prepared by transfecting the 7tmHR-expressing vector (7tmHR/pcDNA3.1) and the hk01941-expressing vector (hk01941/pcDNA3.1), respectively, into a CHO-K1 cell strain. Specifically, the expression vector was mixed with Lipofectamine 2000, (may be referred to as LF2000, Invitrogen) (4 μg DNA/250 μL of DMEM/F12 medium+10 μL of LF2000/250 μL DMEM/F12 medium) and added the CHO-K1 strain (2 mL medium/well) cultured in a 6-well plate to be transfected thereinto. On the following day, cells were recovered and seeded in a 96-well plate at cell density of 1 cell/well, cultured in a selective medium containing G418 (400 μg/mL) (DMEM/F 12 medium containing 10% FCS), and screened for expression cell strains. […]
(§2) Changes in the intracellular calcium (Ca^2+) concentration induced by CCK-8S were measured by a method similar to the method described in Example 5 using the 7tmHR stably-expressing strain and the hk01941 stably-expressing strain prepared in Example 7. […]
(§3) Cells were seeded in a 96-well plate (a plate with a black wall and a transparent bottom) at a cell count of 3×10^4/100 μL of medium/well and cultured overnight at 37° C. in a 5% CO2 incubator. […] After reaction, changes over time in the fluorescence intensity in each well after addition of CCK-8S were measured using the FLEX station (Molecular Device). […]

hk01941 = target: T2, hk01941 (Homo sapiens, UniProt O60241, DEL308-417); assay: Changes in intracellular Ca2+ concentration in hk01941 stably-expressing strain; type: cell-based
T2 construct: a vector expressing each full-length cDNA clone was constructed; expressed in transfected cells; host or cells: CHO-K1, hk01941/pcDNA3.1
T2 sequence (O60241 with tags, fused parts or gaps DEL308-417): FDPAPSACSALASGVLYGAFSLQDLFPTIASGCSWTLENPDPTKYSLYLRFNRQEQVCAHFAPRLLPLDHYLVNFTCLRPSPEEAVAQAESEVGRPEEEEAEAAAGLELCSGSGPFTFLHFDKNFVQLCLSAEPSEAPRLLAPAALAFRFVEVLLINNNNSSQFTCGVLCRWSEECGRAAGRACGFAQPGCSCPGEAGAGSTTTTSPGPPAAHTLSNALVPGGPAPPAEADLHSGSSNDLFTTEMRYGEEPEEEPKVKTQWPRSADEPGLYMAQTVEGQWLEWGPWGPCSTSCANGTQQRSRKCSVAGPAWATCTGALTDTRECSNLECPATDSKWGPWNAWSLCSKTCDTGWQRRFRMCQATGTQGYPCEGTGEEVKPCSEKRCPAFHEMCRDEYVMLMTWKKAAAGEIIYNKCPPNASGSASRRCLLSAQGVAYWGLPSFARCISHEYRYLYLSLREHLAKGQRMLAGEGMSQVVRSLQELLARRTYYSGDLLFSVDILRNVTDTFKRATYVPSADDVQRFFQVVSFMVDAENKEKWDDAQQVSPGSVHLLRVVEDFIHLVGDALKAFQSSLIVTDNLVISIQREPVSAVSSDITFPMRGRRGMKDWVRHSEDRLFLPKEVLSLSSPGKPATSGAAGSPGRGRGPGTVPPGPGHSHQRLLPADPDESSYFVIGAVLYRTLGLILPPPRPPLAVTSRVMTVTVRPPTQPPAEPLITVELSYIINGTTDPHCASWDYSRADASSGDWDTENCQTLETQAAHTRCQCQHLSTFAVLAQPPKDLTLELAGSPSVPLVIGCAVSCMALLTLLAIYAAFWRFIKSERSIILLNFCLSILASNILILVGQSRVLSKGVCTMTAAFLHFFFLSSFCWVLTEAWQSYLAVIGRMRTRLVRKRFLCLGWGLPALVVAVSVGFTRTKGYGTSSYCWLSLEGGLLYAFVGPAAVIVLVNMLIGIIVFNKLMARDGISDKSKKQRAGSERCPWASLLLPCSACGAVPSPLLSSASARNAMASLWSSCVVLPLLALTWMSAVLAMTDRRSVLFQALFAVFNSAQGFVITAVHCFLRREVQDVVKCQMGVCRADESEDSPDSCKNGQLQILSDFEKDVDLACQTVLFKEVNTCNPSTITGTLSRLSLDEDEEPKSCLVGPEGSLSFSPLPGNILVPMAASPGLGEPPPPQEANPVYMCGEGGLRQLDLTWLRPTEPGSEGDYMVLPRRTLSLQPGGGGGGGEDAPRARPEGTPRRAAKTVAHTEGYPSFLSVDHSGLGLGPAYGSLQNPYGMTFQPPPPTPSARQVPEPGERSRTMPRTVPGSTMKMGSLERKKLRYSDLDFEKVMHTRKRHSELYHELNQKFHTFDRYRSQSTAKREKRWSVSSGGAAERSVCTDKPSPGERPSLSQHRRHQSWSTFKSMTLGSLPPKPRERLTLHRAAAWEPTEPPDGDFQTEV
Description: as §1, §2, §3

T1 sequence (O60241 13-1585): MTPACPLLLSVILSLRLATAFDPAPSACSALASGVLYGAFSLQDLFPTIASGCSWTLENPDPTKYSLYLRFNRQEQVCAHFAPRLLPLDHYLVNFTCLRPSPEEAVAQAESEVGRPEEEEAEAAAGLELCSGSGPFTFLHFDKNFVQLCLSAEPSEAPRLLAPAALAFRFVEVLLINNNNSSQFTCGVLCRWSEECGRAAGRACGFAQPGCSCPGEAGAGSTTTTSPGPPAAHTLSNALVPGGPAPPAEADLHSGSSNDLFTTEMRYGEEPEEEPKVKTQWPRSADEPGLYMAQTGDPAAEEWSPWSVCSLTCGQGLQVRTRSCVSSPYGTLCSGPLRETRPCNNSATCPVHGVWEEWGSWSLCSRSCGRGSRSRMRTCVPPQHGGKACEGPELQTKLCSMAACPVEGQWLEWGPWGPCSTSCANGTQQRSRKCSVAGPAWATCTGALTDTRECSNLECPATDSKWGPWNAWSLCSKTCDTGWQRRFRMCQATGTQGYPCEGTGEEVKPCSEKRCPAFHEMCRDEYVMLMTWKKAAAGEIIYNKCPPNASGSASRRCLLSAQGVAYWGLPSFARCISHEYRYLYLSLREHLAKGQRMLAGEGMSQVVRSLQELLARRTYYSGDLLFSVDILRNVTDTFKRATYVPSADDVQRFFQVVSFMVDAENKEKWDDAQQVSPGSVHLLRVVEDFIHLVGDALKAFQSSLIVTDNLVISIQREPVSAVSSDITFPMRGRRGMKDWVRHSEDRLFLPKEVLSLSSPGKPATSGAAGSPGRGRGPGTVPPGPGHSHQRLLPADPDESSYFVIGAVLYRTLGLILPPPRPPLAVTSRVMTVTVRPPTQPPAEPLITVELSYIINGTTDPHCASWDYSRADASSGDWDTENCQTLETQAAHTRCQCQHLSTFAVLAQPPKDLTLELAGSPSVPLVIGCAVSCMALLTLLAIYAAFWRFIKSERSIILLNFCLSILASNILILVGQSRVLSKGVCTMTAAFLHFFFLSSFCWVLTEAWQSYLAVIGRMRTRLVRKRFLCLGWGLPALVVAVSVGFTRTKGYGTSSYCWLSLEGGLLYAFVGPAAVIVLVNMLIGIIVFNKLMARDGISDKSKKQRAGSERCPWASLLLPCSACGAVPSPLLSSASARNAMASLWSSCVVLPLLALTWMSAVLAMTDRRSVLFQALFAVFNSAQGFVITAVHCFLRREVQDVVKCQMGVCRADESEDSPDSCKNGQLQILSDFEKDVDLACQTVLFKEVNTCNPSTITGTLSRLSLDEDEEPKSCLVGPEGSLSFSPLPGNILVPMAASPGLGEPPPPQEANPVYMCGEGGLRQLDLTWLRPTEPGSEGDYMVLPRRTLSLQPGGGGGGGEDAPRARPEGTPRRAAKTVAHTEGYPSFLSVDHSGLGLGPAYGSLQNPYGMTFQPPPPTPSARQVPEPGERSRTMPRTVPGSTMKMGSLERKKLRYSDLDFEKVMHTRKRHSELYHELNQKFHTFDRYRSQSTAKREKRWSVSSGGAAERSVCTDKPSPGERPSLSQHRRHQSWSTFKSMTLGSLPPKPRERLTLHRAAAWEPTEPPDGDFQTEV

| Molecule | Change in intracellular Ca2+ concentration after addition of CCK-8S (7tmHR; 7tmHR stably-expressing strain, CCK-8S 10 pM to 1 μM, figure at 1 nM) | Change in intracellular Ca2+ concentration after addition of CCK-8S (hk01941; hk01941 stably-expressing strain, CCK-8S 10 pM to 1 μM, figure at 1 nM) | Change in intracellular Ca2+ concentration (fluorescence intensity) (7tmHR; 7tmHR/CHO#6, A23187 20 μM, positive control) | Change in intracellular Ca2+ concentration (fluorescence intensity) (hk01941; hk01941/CHO#13, A23187 20 μM, positive control) |
| --- | --- | --- | --- | --- |
| cholecystokinin octapeptide sulfated form [CCK-8S] | increase | increase | – | – |
| CNc1ccc2oc(C[C@H]3O[C@@]4(CC[C@H]3C)O[C@H]([C@H](C)C(=O)c3ccc[nH]3)[C@H](C)C[C@H]4C)nc2c1C(=O)O [A23187] | – | – | increased | increased |
